From patent publication US11202837B2, “Biological materials and uses thereof” (Antikor Biopharma Limited, priority 2014, dated 2021)
Like-named read-outs stand apart in the source and are kept apart here. Where a SMILES comes first, the peptide text is derived from it. [ ]: non-standard residue; d: D form. Dolaproine = CO[C@@H]([C@@H]1CCCN1)[C@@H](C)C(=O)O; Dil = CC[C@H](C)[C@H](NC)[C@@H](CC(=O)O)OC; NMeV = CN[C@H](C(=O)O)C(C)C

B1: scFv (TCT1067)-DM1-dPEG12 DAR 7 (conjugate)
scFv: SGSGGSGQVQLVQSGAEVKKPGESLKISCKGSGYSFTSYWIAWVRQMPGKGLEYMGLIYPGDSDTKYSPSFQGQVTISVDKSVSTAYLQWSSLKPSDSAVYFCARHDVGYCTDRTCAAWPEWLGVWGQGTLVTVSSGGGGSGGGGSGGGGSQSVLTQPPSVSAAPGQKVTISCSGSSSNIGNNYVSWYQQLPGTAPKLLIYGHTNRPAGVPDRFSGSKSGTSASLAISGFRSEDEADYYCASWDYTLSGWVFGGGTKLTVLMASMTGGQQMG
B2: scFv (TCT1067)-Auristatin F-C5, DAR 6.2 (conjugate)
scFv: B1 scFv
B3: scFv (TCT1067)-Auristatin F-C5, DAR 2.7 (conjugate)
scFv: B1 scFv
B4: scFv (TCT1067)-Auristatin F-C5, DAR 11.8 (conjugate)
scFv: B1 scFv
B5: scFv (TCT1067)-MMAE-PAB-Cit-Val-dPEG9, DAR 9 (conjugate)
scFv: B1 scFv
modifications: non-natural residues
B6: scFv (TCT)-Auristatin F-C5: scFv (TCT) conjugated with Auristatin-F-C5-NHS (compound 88), 30 equivalents, average DAR 8.5 (conjugate)
scFv: SGSGGSGQVQLVQSGAEVKKPGESLKISCKGSGYSFTSYWIAWVRQMPGKGLEYMGLIYPGDSDTKYSPSFQGQVTISVDKSVSTAYLQWSSLKPSDSAVYFCARHDVGYCSSSNCAAWPEYFQHWGQGTLVTVSSGGGGSGGGGSGGGGSQSVLTQPPSVSAAPGQKVTISCSGSSSNIGNNYVSWYQQLPGTAPKLLIYGHTNRPAGVPDRFSGSKSGTSASLAISGFRSEDEADYYCAAWDDSLSGWVFGGGTKLTVLMASMTGGQQMG

Tests used:
[1] = test system: BT474 human breast carcinoma xenografts; test: Tumour growth inhibition or eradication in BT474 xenograft model; type: in vivo; conditions: free payload treated group
Experimental: Mice. […] The animals were fed ad libitum water (reverse osmosis, 1 ppm Cl), and NIH 31 Modified and Irradiated Lab Diet® consisting of 18.0% crude protein, 5.0% crude fat, and 5.0% crude fiber. The mice were housed on irradiated Enrich-o'cobs™ Laboratory Animal Bedding in static microisolators on a 12-hour light cycle at 20-22° C. (68-72° F.) and 40-60% humidity. Charles River Discovery Services North Carolina (CR Discovery Services, who carried out this contracted R&D) specifically complies with the recommendations of the Guide for Care and Use of Laboratory Animals with respect to restraint, husbandry, surgical procedures, feed and fluid regulation, and veterinary care.
Tumor weight may be estimated with the assumption that 1 mg is equivalent to 1 mm^3 of tumor volume.

[2] = target: HER2 (Homo sapiens, UniProt P04626); test: Biacore SPR binding to immobilised HER2
Experimental: The binding affinity against immobilised HER2 target antigen was determined by Biacore SPR compared to the unmodified scFv on a Biacore T200. A standard amine-coupling method was used to prepare all Biacore surfaces (CM5 or CM3), as follows. Flow cells were activated individually by injecting a freshly mixed solution of 0.2M EDC in 0.05 M NHS at 30 μl/min. […] Excess NHS ester was deactivated using a 1 M ethanolamine solution. To measure the kinetics of the antibody and conjugate on the HER2 chip, a […] serial dilution (typically at 5, 2.5, 1.25, 0.6 μg/ml or lower for free antibody and 20, 10, 5, 2.5 μg/ml for the conjugates), was injected for 160 s at 30 μl/min, allowing a 900-s dissociation phase. The dissociation time was extended to 3600 s for the highest concentration. Surfaces were regenerated with 45 s injection of MgCl2 8M.
To evaluate binding ability, manual runs were performed at 30 μl/min with a 60 s injection of the desired compound followed by 60 s waiting time and a 45 s of regeneration at 10 μl/min using MgCl2 8M. All data was analysed using the software, BIAEvaluation.

[3] = Aggregation by HPLC size-exclusion chromatography; type: physicochemical
Experimental: Aggregation can be tested by analytical size-exclusion HPLC measuring the percentage of high molecular weight material compared to the conjugate eluting at a retention time characteristic of a monomeric conjugate.
Typically, 20 μg of protein was injected for analytical runs and 300 μg for semi-preparative runs.

[4] = test system: SKBr3 cells; test: Cell killing assay (MTS), SKBr3 cells; type: cell-based, human; conditions: SKBr3 Cells (HER2+++), 96 hours; for IC50: read-out: IC50
[5] = test system: BT474 cells; test: Cell killing assay (MTS), BT474 cells; type: cell-based, human; conditions: BT474 Cells (HER2++), 96 hours, Table 49; for IC50: read-out: IC50
How it was run: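 BT474 and NCI-N87 cells plated at 7500 cells/well in RPMI and exposed to ADCs for 96 h at 37 °C, 5% CO2. Viability read by MTS absorbance at 490 nm after 2 h, scaled between untreated (100% survival) and Triton X-100 (100% death) controls. Dose-response curves fitted from at least 3 repeats.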

[6] = test system: NCI-N87 cells; test: Cell killing assay (MTS), NCI-N87 cells; type: cell-based, human; conditions: 96 hours
Experimental: (§1) The cells were recovered by centrifugation (2 min, 2000 rpm), the supernatant was discarded, and the cells were resuspended in complete McCoy's 5A (5 ml). The cells were then counted using a haemocytometer and diluted accordingly. They were plated at 5000 cells/well (200 μl) using attachment factor and incubated overnight at 37° C., 5% CO2 in a humidified atmosphere. U87 is a non-HER2 expressing glioblastoma cell line [Zitron I M et al (2013) BMC Cancer 13:83] and was grown in a similar way, plated at 1000 cells/well (using DMEM media). BT474 is a HER2 expressing breast cancer cell line [Brockhoff G et al (2007) Cell Prolif 40:488-507] and was grown in a similar way, plated at 7500 cells/well (using RPMI media). NCI-N87 is a HER2 expressing gastric cancer cell line [Yamashita-Kashima Y et al (2013) Oncol. Rep 30:1087-93] and was grown in a similar way, plated at 7500 cells/well (using RPMI media).
(§2) The cells were exposed to the various ADCs diluted in complete media for 96 hours at 37° C., 5% CO2 in a humidified atmosphere. Cell viability was measured using the Promega Aqueous Cell-titre-96™ aqueous one solution cell proliferation kit (MTS reagent) according to manufacturer's instructions. Briefly, the media was removed and 100 μl of complete phenol red free media, pre-combined with MTS reagent, was added to the cells (20 μl of reagent per 100 μl of media). The plates were read on an ELISA plate reader at 490 nm after a 2 hr incubation in the dark (5% CO2, 37° C.).
(§3) The data (absorption units) were converted to % cell survival by using the untreated controls as the 100% cell survival and the Triton X-100 controls as the 100% cell death. The average absorption value for the latter was subtracted from all the rest of the data in order to get a suitable baseline. The averages were converted to survival and standard error values were obtained for each n value (as a % cell survival). […] Experiments were repeated at least 3 times for each compound tested and a set or an average of the data was plotted and fitted to obtain a dose-response curve.

[7] = test system: U87 cells; test: Cell killing assay (MTS), U87 cells; type: cell-based; conditions: U87 Cells (HER2−), 96 hours, Table 51
Experimental: SKBr3, human breast cancer cell line, high HER2 expression levels, up to 1,000,000 receptors per cell [Lazar G A, et al Proc Natl Acad Sci USA. […] When confluency was 70-80%, cells were washed with PBS (2×10 ml) and incubated with trypsin for 5-7 min. Complete media was added and the cells were resuspended by pipetting. The cells were recovered by centrifugation (2 min, 2000 rpm), the supernatant was discarded, and the cells were resuspended in complete DMEM (5 ml). The cells were then counted using a haemocytometer and diluted accordingly. They were plated at 4500 cells/well (200 μl) using attachment factor and incubated overnight at 37° C., 5% CO2 in a humidified atmosphere. U87 is a non-HER2 expressing glioblastoma cell line and was grown in a similar way, plated at 1000 cells/well.
as §2, with “kit” for “kit (MTS reagent)”
as §3, with “dose response” for “dose-response”
as §1, §2
The data (absorption units) were converted to % cell survival by using the untreated controls as the 100% cell survival and the Triton X-100 controls as the 100% cell death. The average absorption value for the latter was subtracted from all the rest of the data in order to get a suitable baseline. The averages were converted to survival and standard error values were obtained for each n value (as a % cell survival).

[8] = Concentration reached and storage stability of purified conjugates in buffer; type: physicochemical
[9] = NCI-N874 Cells (HER2++), Table 49
[10] = NCI-N87 Cells (HER2++), Table 51

| Molecule | IC50 μg/ml ([4]; Table 49) [µg/mL] | IC50 ([4]; Table 49) [nM] | IC50 μg/ml [5] [µg/mL] | IC50 [5] [nM] | IC50 μg/ml [6, 9] [µg/mL] | IC50 [6, 9] [nM] | other results |
| --- | --- | --- | --- | --- | --- | --- | --- |
| CC[C@H](C)[C@@H]([C@@H](CC(=O)N1CCC[C@H]1[C@H](OC)[C@@H](C)C(=O)N[C@@H](Cc1ccccc1)C(=O)O)OC)N(C)C(=O)[C@@H](NC(=O)[C@@H](NC)C(C)C)C(C)C [Free MMAF, monomethyl auristatin F, reference compound] (H-[NMeV]V[Dil][Dolaproine]F-OH) |  |  |  |  |  |  | tumour growth (in words) [1]: grew rapidly |
| B1 |  |  |  |  |  |  | association rate ([2]; immobilised HER2): 19500 M⁻¹ s⁻¹; dissociation rate ([2]; immobilised HER2): 2.7e-05 s⁻¹; aggregation by HPLC-SEC [3]: 1% aggregates |
| B2 | 0.00101 | 0.0361 | 0.00112 | 0.0399 | 0.00036 | 0.0129 |  |
| B3 | 0.00089 | 0.0317 | 0.00115 | 0.0392 | 0.00087 | 0.0311 |  |
| B4 | 0.00844 | 0.299 | 0.01082 | 0.386 | 0.0087 | 0.31 |  |
| B5 |  |  |  |  |  |  | IC50 μg/ml ([4]; Table 51): 0.04476 µg/mL; IC50 ([4]; Table 51): 1.59 nM; IC50 μg/ml [7]: 0.1 µg/mL; IC50 ([7]; read-out: IC50): 3.57 nM; IC50 μg/ml [6, 10]: 0.195 µg/mL; IC50 [6, 10]: 6.95 nM |
| B6 |  |  |  |  |  |  | binding function against immobilised HER2 (in words) ([2]; compared to unmodified scFv): verified; aggregation by HPLC-SEC (in words) ([3]; purified or analysed conjugate vs unconjugated antibody): no aggregation; time stable in the buffer ([8]; after purification and concentration): several weeks; concentration to which purified conjugates were concentrated ([8]; in buffer after SEC purification): ~600 µg/mL |
